# Assay: soluble on expression in E. coli; label from the status in PepcDB or PDB records
row,Sequence,soluble on expression in E. coli
1,MGSDKIHHHHHHMPITFVDRESELKFLESLWKRRNSFVPVYGRRRIGKTRLVKEFIKGKPSVYYLSRNSSYNDNLYGFSQVVLEAYPSPYLTPKSFSTFTDIFRYLSEKGKVVVVIDEFPYLINSDKRILSEFQYIIDEIVRNSEIHLILVGSSIGMMEEHVLSQKSPLYGRRDGQIRLHSLDFFSSWKLLGVSLEEAIKIYGVTGGIPAYLILFKKFEDLKNVAFSKQGFLYAEADFLLSSELREPRVYKLILKAIAEGKRRFNEISTFTGIPRPNLFKYIEVLERLGLLRREAPITAPPKTKNTRYKIVDNYIAFYFRFIEKYRHEIELESINFWEEFLEDYNNYLGEVFEDIACQFLVRLNKKRMFPFRFSKIGRWWHKNEEIDLVALDKREKRASFIEVKWKTLKEGEARSILRDLERKSKLVGLDYWNKNYGLIAKHIEGKENLREEGFLAWDLRDFELVKKE,not soluble
2,MGSDKIHHHHHHMGKVLFVSGIDTDIGKSVATGYYARYLMQLGYSVITQKMVQTGCCDISSDILIHRKIQGVELADEDRKGETCCYLFDYPCSPYLAACLQNTYIDEKTIEKYTALLAQKYDYVLLEGAGGLMVPYAEGKTTLDYITAHNYPLILVTSGRLGSINHTLLSLEVCAHQNINVDTLIYNLYPPTDKLITQDTQQYFKSYLAKRFPTTKFMLMQKIDF,not soluble
3,MCTVVIDRRPGDPWPLLVAANRDELADRPWLPPARHWPSRPEVIAGLDELAGGTWMGLNDWGVVACVLNREGTLGPLAGRRSRGELVLDALDMADARDAAEALADIDPRAYRPFNLIVADNRDAFWIRHADAEGRAAVEVHPLAEGLTLMTAHDPDDPLDARARAYLPRFRAAPRPDPQLRDGWAPWTHLLGSRDHAVDDGPTAAMCFSLAGGFGTSSSSLIALPAMERIGVDPLYLFAPAPPDQTDYRPVLEHHHHHH,soluble
4,MSLRLGIILHGVTGRMGYNQHLVRSVLAIRDQGGIMLKSGGRLEIDPIIVGRNRDKIEQLAKRHDIARWSTDLDAALADPNDQIFFDAGTTLMRAELIGRALDAGKHVYCEKPVSDDLRTAVKLARKARASGLKHGVVQDKLFLPGLQKLALLRDSGFFGKILSVRGEFGYWVFEGDWGVPAQRPSWNYRKKDGGGIILDMLCHWRYVLDNLFGEVKAVSCLGATHISSRIDEQGRAYDCDTDDAAYATFELEGGVIAQINSSWTVRVRRDDLVTFQVDGTHGSAVAGLTKCWTQHRVNTPKPVWNPDQPQTIDFYETWDEVPDTQAFDNGFKAQWEMFLRHVAEDSPWPYGLEAGAKGVQLAELGLKSWAERRWLDVPELEEGHHHHHH,soluble
5,MGSDKIHHHHHHMANFSYEVFSKVVERGTLAKAAAELNVTPSAVSHSVSQLETELGFPLLIRNRTGVALTEDGAQVLPIIQSIQNLEEQLTQVADNINGVNTGRIRIGAFSSVSTNWLPTIIRRFKKRYPHIEISVVQGTFNRIVEAVRLGTADIGFSSLPVGPGVVVEPLLKDPIYCITAKQFKPKNGRTVTQADVDKQNFILQQIDYDRDTKNALDRYHVSSNAINYSIDDQSILSMVESGLGMGILPKLAVQKLVGDVNMYPFSEPFERTLCLVINPTIKKSPSVQRMQQVIHSFLAETYGEAFLGHQG,not soluble
6,MGSDKIHHHHHHMTEVISTQSVVDLAAIAEKFAFPGTVTNVQAFGSGNINDTFLVTVDSLEAQHFILQRINTLVFRQPELIMQNMRIFSDHVYQRLQYAPPSRRWEVPRILSTKDNHDYCTDTQGNFWRAISFISGSQSFDTMQDLAQAQEIGYALGMFHNLISDLSPEKLADTLVGFHITPLYLRHYEQVLATAKPQPSPELDYCLQFVSDRQSYACILENAKAAGELPLRLMHGDPKINNIMFDTVTHKAVSVIDLDTVKPGLVHYDIGDCLRSGCNHAGEETEHWESVAFDTDLCQGILQGYLSVAKDFLTENDYAYMYDAIRLIAFELGLRFFADYLAGNVYFKIKYPEHNLARALVQFKLTESIESQEIKIRKIIQDIK,not soluble
7,MGSDKIHHHHHHLVNFIRKNVLPQFGFSREHSTLYPLGNGHINQTFLVSDKSKSLVLQRINTQIFTDPKVVIQNAANISQHLLIKRQQLHYPLQVVSPIATVAGALYLDLGEQGFWRAIDYLPHSTTIEVVDTLNQAKLAAEAFGHFAEALSDLNPSCIADVIPNFLNLPQRIAQLREAKAGDTHNRFSHCIDWVGLCLSQTDLLATLVQYEAELPIRICHNDTKINNMLFDNRDMSSMAIIDLDTCMKGYLMYDFGDMVRAFCSPETEDSTNLTNVYARPEIVIAAATSYMESLGGIITPLEKRSLWLGTKVMSLMLGVRFLTDYLNGDTYFGVKYQTHNLDRAINQLTIYQSLLQQEAQLMPLFNS,not soluble
8,MFQAQHLTKSFGDLVLFEDLSFSIERGEKVGLIARNGNGKTTLMNILTGIDSPDSGEVIYQNGIRRAYLPQLPQVLPGSTVLETCFGHNDEMTSLIAQWEEASARGDGKRMEELLPEMDALGAWEYEQRAREILTRLHLDDLHCTTDNLSGGELKRIALAGTLIGNPELLFLDEPTNHLDLDVIEWLEGYLSHQQIGLLLVTHDRYFLDRVCNRILELDNKQLYAYKGNYEYYLNKREERLEATERETSRAANLLRREAEWMHRRPQARGTKAKSRIDAFYELKEKAQPRHRDETLHLSEQGRYIGNKIFEAHKVCKAFGDRTILSDFDYIFSRYDKVGIVGPNGVGKTTFLRLLLGEEKPDSGYFDVGETVRFGYYSQKGMQFDENKRVIEAVQDIAEVIRNEKDGTTLSASALLTQFLFPPEKQYTPIHKLSGGEQRRLYLCTVLMKNPNFLILDEPTNDLDILTLNVLENYLSEFKGCVLVVSHDRFFMDKVVNHLFTFEGNGIVKDFPGNYTQYREYKQQEEAERQTVESSPSTRKAESEKPRTDAAERPRKLTFKEKQELERLEAELPKLEKEKAELESRMSSGTMATDELLTAGDRIAALIEEIDSKGMRWLELSDI,not soluble
9,MSYLRALFFVLAMLATFGSMAGEPAHSDSGRDQVIRQILSDFWGNAKDVHGNAIQPASQEDRATVPISRAAAYRALEAGNLSGLAEWCGLDWEQHYLGLTEEARKMGMLDKQVAFFSVLHGAGQGAMVGSRSGQTCTAKQRTRIETLLLESQKEGLPSDALNGWQ,not soluble
10,MASYKKERLENDIIRLINRTVIHEIYNETVKTGHVTHVKLSDDLLHVTVYLDCYNREQIDRVVGAFNQAKGVFSRVLAHNLYLAKAVQIHFVKDKAIDNAMRIESIINSLKKSKPN,soluble
11,MSFFVNRIWYGNHFLQWILVPFSWLYRIVIRTRRWYLQRFCQQLYPIPIIVVGNVTVGGVGKTPLVIEIAKKIQQKGLKVGIVSRGYKAAIKHFPYEVKLNDSAELVGDEPLMMARKINCPVVIAPKRNEAVRYLLDKHSVEIIISDDGLQHYKMGRSIEIVVIDGMRKLGNGFCLPAGPLREPDSRLKQVDFVIVNQGAAEGTYSMELIPKNIVRLSTQEEVSNDLFTSEVAAVAGIGNPQRFYSTLSQLGIKFNPYSYPDHHQFKPHDLNDIDLPVIMTEKDAVKCYSFSSDKLYYLPVEAKLNDSFWEAFWSHQQLQGYYLEHHHHHH,not soluble
12,MVKVGIIGGSGLEDPNILLDPVTVAVDTPYGKPSDDVVEGTINGVECVLLARHGRKHDIMPGNVNFRANLWALYSRGVDVIIASTACGSLQENVEPGHLLFPDSVFDRTTGRQSTFFDGSYDQAPGVCHIQAHPTYNEKLRQVLISTAERCQLVHHRTGFGVCIEGPRFSTKAESMVFKSWGASLVNMTMMPECILAKELGIPYATTALVTDYDCWKEEDHVTASSVMKVFAANVEKAKTLFVEAVGEIGKIDWSAEILKLKTEARESVMISPDVVIPFLTTDNQKKF,not soluble
13,MSLKPEEIVEGLLSGNRRALARAITYVENEYPESKEIMRQIFAKTGRAHVVGLTGFPGVGKSTLVSKLTEEFRRRGKKVGIIAIDPGSPFTGGALLGDRLRLDGMDSRKQLWTDPGIFFRSMSSRGRAGGLAAKTGDVVRLLDAFGFDVILVETVGAGQSEVDIIEVADTSVVVMMPETGDEIQVNKAGILEIGDIYVVNKADLGGAEKVERWLRYMLSLDEESVQMLSQMTHADEARVQSGEFFERRKGWNPPVIKTVADRGEGIKELADAIEEHFDYMKKTGLIEKRRRERVKRELFEIVMNDVIKLVKEKTNYRDLLVKLLKGETDPYTAAEQIVEEVIHNAGKGEGHHHHHH,soluble
14,MGSDKIHHHHHHMSIAVTTTDPTNTGVSTTSSSSLTGSNAADLQSSFLTLLVAQLKNQDPTNPMENNELTSQLAQISTVSGIEKLNTTLGSISGQIDNSQSLQASNLIGHGVMIPGTTVLAGTGSEEGAVTTTTPFGVELQQAADKVTATITDKNGAVVRTIDIGELTAGVHSFTWDGTLTDGSTAPNGSYNVAISASNGGTQLVAQPLQFALVQGVIRGNSGNTLDLGTYGTTTLDEVRQII,not soluble
15,MSLGAFLDKPKTEKHNAHGAGNGLRYGLSSMQGWRVEMEDAHTAVVGIPHGLEDWSFFAVYDGHAGSRVANYCSTHLLEHITTNEDFRAAGKSGSALELSVENVKNGIRTGFLKIDEYMRNFSDLRNGMDRSGSTAVGVMISPKHIYFINCGDSRAVLYRNGQVCFSTQDHKPCNPREKERIQNAGGSVMIQRVNGSLAVSRALGDYDYKCVDGKGPTEQLVSPEPEVYEILRAEEDEFIILACDGIWDVMSNEELCEYVKSRLEVSDDLENVCNWVVDTCLHKGSRDNMSIVLVCFSNAPKVSDEAVKKDSELDKHLESRVEEIMEKSGEEGMPDLAHVMRILSAENIPNLPPGGGLAGKRNVIEAVYSRLNPHRESDGGAGDLEDEGHHHHHH,soluble
16,PKYQANTQILVNQTKGDNPQFMAQEVQSNIQLVNTYKEIVKSPRILDEVSKDLNDKYSPSKLSSMLTITNQENTQLINIQVKSGHKQDSEKIANSFAKVTSKQIPKIMSVDNVSILSKADGTAVKVAPKT,not soluble
17,MGRTQPCGGSCISSTYTLKKNRPCGWSAPPGSRILNQQPQGWPHNQTGCNVHKKIVVPSATDMATRFTQDSFVFDCLSMYYVIDDPWAENCLAAGVNATNVTFGTEQPWDIVLRDFDSGLEKIERSPYLALATNRQEIDAANKQGKLAVIIGTQGSAMVDLEFHRLRTMHRLGMRYFGLAYTGPTMFADGCGESRNAGLSFAGIELIDACNDLGLILDLSHVGHRSREETVARSRFPVCTHSNSYALNPNDRNTTDETARAIRAKGGIMGICGLPKTVHPENATLNELLDHADHWVKTIDAAHVGFGLDFVEAYKSDRSTMPAASRLWRTRRPDIFGTVEEFHLQDYPLGIASIKQLPNLTQGLFDRGYAEKEVAGIIGGNWLRHFTEVYG,not soluble
18,KTTTTIYDKNKEYAGKLSGQKGTYVELNAISDHLKNAVIATEDRTFYENNGVNFKRFFLAVATLGKFGGGSTITQQLAKNAYLSQDQTIKRKAREFFLALELTKKYSKAEILTMYLNNSYFGNGVWGVEDASRKYFGTSAANLTVDEAATLAGMLKGPEVY,not soluble
19,MIRSSKRSLSRDLVRFVQYVDDCVVKRYGFVVKSGSGIKLNGKKPQGFGTSSEDEDNNADMSDDSEEVPVSSIDKRKVASSKSRTGVVIEGDVVKPPVMKFVVLDKNRNVCQVYGNRHDLTSSAEDDSVDGDEETLVMSRDNGRKQSLKARNGVSVKGGGGKTTRVVKTVSFDENGNVCKVYGDTHDLTSSAEDDDSVDVGEETLVMCRDEGKRRSSKTGSRVLVKGSGGKTNRVVKTVSFDENGNVYKAYGDTPESSIISEEDDSTSGSNEGNGEEKGNVNEVEEIKYVPKENESFEEEEEKETDSENEVSSSEGSEGDKRVTKKEVQHQKGSLMFSPPLPLKMEP,soluble
20,AVSSATLEMESQRDEVAGLVRLGLSQSFGTLHIIPAIQELRELYPQLQVEVHLFDYKVDMLAEGLDLWVTNNEHLPEGYIAQRLTDCQFVVAASPDYLLKYDTPTEPNDLSLHNCLIYRSWERDYTGWAFTKGQQELNVKVSGNYSVDLAEAVRDAAIAGWGIAYLATYLLGDEFRTGKLIQLLPDWKASQSMPFYAVYPSRQHMPKKISAVINFIKQKIGNPCHWDQRLAPYISIPK,not soluble
